For assay [1], the target named is serpin Z4 (barley (Hordeum vulgare) cv. Harrington) (UniProt P06293). Nature of the assay: SPR; serpin Z4 immobilised by amine coupling on a CM5 chip, β-amylase injected at 2, 0.9, 0.4, 0.2 and 0.1 μM; PBS; Biacore T200.
Assay [2] has the same target. The experiment in a line: MST; serpin Z4 labelled with an NHS-ester fluorescent dye (70 nM), unlabelled β-amylase from 16 μM to 0.5 nM; PBS with 0.1% Tween-20; Monolith NT.115; three replicates combined.

pKd: −log10 of the molar value.

Sequence of serpin Z4 (barley (Hordeum vulgare) cv. Harrington) (P06293 whole entry): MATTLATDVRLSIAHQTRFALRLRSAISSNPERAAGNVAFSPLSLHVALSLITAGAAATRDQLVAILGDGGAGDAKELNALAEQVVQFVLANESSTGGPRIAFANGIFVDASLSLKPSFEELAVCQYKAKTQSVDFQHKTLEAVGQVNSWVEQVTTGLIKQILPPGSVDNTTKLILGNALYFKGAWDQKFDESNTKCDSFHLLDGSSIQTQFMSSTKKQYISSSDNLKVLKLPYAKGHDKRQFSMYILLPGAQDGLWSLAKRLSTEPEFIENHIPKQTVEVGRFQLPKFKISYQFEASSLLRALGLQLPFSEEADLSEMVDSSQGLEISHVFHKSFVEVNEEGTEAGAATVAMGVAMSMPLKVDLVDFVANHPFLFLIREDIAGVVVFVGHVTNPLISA

For the substance “β-amylase WT (from UniProt P16098 1-535) (enzyme)”, the pKd is 6.50 in assay [1] and 7.00 in assay [2].

The values are drawn from PMC6508567.
